Laboratory results from the nanobody polyreactivity screen of Harvey et al. (2022).

Experiment: yeast display, Sf9 membrane polyspecificity reagent, FACS + sequencing; frameworks hold sequencing errors
Outline: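 Sorting gates, low and high (top ~1%), were placed on anti-HA fluorescence to track expression and on streptavidin fluorescence to track reagent binding. A clone's polyreactivity label is taken from the gate it came out of. The reagent was 10% biotinylated, detergent-solubilized Sf9 membrane, applied for 1 hour at 4 °C to galactose-induced yeast display cells.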

Row | Sequence | polyreactivity (PSR sort gate)
1 | QVQLVESGGGLVQAGCSLSLSCAASGITFRSYAKGWYRQAPGKERELVAAIRSGGSTSYADSVKGRFTISRDNAKYTVYLQMNSLKPEDTAVYYCAAGGYVPLPDITFWKFGYWGQGTQGTVSS | low polyreactivity
2 | QVQLVESGGGLVQAGCSLSLSCAASGSIFGRYTMGWYRQAPGKERELVAAINLRGGSTYYADSVKGRFTISRDNAKNTVYLQMNSLKPEDTAVYYCATVGWKQSAYDYWGQGTQVTVSS | low polyreactivity
3 | QVQLVESGGGLVQAGCSRRLSCAASGSIFYHNAMGWYRQAPGKERELVAAISGRGGSTYYADSVKGRFTISRDNAKNTVYLQMNSLKPEDTAVYYCAADARYQNGGLYYWGQGPQVTVSS | high polyreactivity
4 | QVQLVESGGGLVQAGCTLRISCAPSGSIFVYNDMGWSRQAPGKERELVASISNGDNTNYADSVKGRFTISRDNAKNTVYLQMNSLKPEDTAVYYCAADGYIGSVVAYGERDYWGQGTQVTVSS | low polyreactivity
5 | QVQLVESGGGLVQAGDSLRLICAASGFIFDNYAMGWYRQAPGKERELVAAISQSGTSTYYADSVKVRFTISRDIAKNTVYLQLISLKPEDTAVYYCNVVPTGVHIFDYWGQGTQVTVSS | low polyreactivity
6 | QVQLVESGGGLVQAGFSLRLSCAASGSILGSYVMGWCRQAPGKESELVAASSYSTSATYYADSVKGRFTISRDNAKNTVYLQMNSLKPEDPAVYYCNADLGSWYTWYDDWGQGTQVTVSS | high polyreactivity
7 | QVQLVESGGGLVQAGGCLRLSCAASGFIFSKNVMGWYRQAPGTERELVARITRSGGTTNYADSVKGRFTISRDNAKNTVYLQMNSLNPGDTAVYFCAARGYGYTSITWYDYWGQGTQVTVSS | high polyreactivity
8 | QVQLVESGGGLVQAGGCLRLSCAGSRSTFHYYTMGWYRQAPGKERELVAAISWRGTSTYYADSVKGRFTISRDNAKNTLYVQMNSLKPEDTGVYYCAVRSSPGAGYYYWGQGTQGTVSS | high polyreactivity
9 | QVQLVESGGGLVQAGGGLRLSCAASGRIFAGYAMGWYRQAPGKEREFVAAISRSGVSTYYADSVKGRFTISRDNAKNTVYLQMNSLKPEDTAVYYCNVYKGNVVEHDYWGQGTQVTVSS | high polyreactivity
10 | QVQLVESGGGLVQAGGILLLSCAASRRIFGVYAMGWYIQAPGKERELVATIRSSGTRKNYADSLKGRFTISRDNAKNTVYLQLNSLKPEDTAVYYCAAGGRPYKLDFTRSDYWGHGTQVTVSS | low polyreactivity
11 | QVQLVESGGGLVQAGGILRLRCAASGSTYGYYAMGWSRQAPGKERELVAAISGSGGRTYYADSVKGRFTISRDNAKNTVYLQMNSLKPEDTAVYYCNTATKNIYDYCGQGTQVTVSS | high polyreactivity
12 | QVQLVESGGGLVQAGGILRLSCAASGFIFRDYAMGWYRQAPGKERELVAAISFTDGTTYYADSVKGRFTISRDNAKNTVYLQMNSLKPEDTAVYYCAAGYTGYTYTELDYWGQGTQVTVSS | low polyreactivity
13 | QVQLVESGGGLVQAGGILRLSCAASGFIFYHYAMGWYRQAPGKERELVASITSGGRTYYADSVKGRFTISRDNAKNTVSLQMNRLKPEDTAVYYCAAAYYYYSSPRFTTGMDYWGQGTQVTVSS | high polyreactivity
14 | QVQLVESGGGLVQAGGILRLSCAASGFTFGLYAMGWYRQAPGTERELVAAIRNNGGSTYYADSVKGRFTISRDNAKNTVYLQMNSLKPDDTAVYYCAKKSFFTGRWWYDYWGQGTQVSVSS | high polyreactivity
15 | QVQLVESGGGLVQAGGILRLSCAASGFTFKANAMGWYRQAPGKERELVAAISRRGSSTYYADSVKGRFTISRDNAKNTVYLQMNSLKPEDTAVYYCNTKPRAGRTKLGYWGQGTQVTVSS | high polyreactivity
16 | QVQLVESGGGLVQAGGILRLSCAASGFTFNNYAMGWYRQAPGKERELVAAISSGAGTYYAESVKGRFTISRDNAKNTVYLQMNSLKPEDTGVYYCNASLKYQGRTRITYRHDYCGQGTQVTVSS | low polyreactivity

Row | Sequence | polyreactivity (PSR sort gate)
17 | QVQLVESGGGLVQAGGILRLSCAASGGIFADYAMGWYRQAPGKERELVADISARGGSTYYADSVKGRFTISRDNAKNTVYLQMNSLKPEDTAVYYCAADALGYDYYYWGQGTQVTVSS | low polyreactivity
18 | QVQLVESGGGLVQAGGILRLSCAASGIIFGPNAMGWYRQAPGKERELVAAITSGGRTYYADSVKGRFTISRDNAKNTVYLHMNSLKPEDTAVYYCAARVWSWRSKYDYWGQGTQVTVSS | high polyreactivity
19 | QVQLVESGGGLVQAGGILRLSCAASGIISYDYDMGWYRPSPGKERELVAAISTSGGTTYYADSVKGRFTISRDNAKNTVYLQMNSLKPEDTAVYYCAADNYVGYHWYNYWGQGTQVTVSS | high polyreactivity
20 | QVQLVESGGGLVQAGGILRLSCAASGITFIRNGMGWYRQAPGKERELVAAISDTGARTYYADSVKGSFTISRDNAKNTVYLQMNSLKPVDTAVYYCAAEVRTRYLYSFRWYDYWGQGTQVTVSS | low polyreactivity
21 | QVQLVESGGGLVQAGGILRLSCAASGLTYFYYAMGWYRQAPGKESELVAAISWSGGRTYYADSVKGRFTISRDNAKNTVYLPMNSLKPEDTAVYYCAADYITAHSSYSTYGYWGQGTQVTVSS | low polyreactivity
22 | QVQLVESGGGLVQAGGILRLSCAASGRIFLYYTMGWYRQAPGKEREFVAAITRSGSSTYYADSVKGRFTISRDNAKNTVYLQMNSLKREDTAVYYCNRVFTWRYGYRYEYWGQGTHVTVSS | high polyreactivity
23 | QVQLVESGGGLVQAGGILRLSCAASGRIFRFYTMGWYRQAPGKERELVAAITSSGRTYYADSVKGRVTISRDNAKNTVYLQMNSLKPEDTAVYYCNKYFRPRTILASPGEYWGQGTQVTVSS | high polyreactivity
24 | QVQLVESGGGLVQAGGILRLSCAASGRIFYINAMGWYRQAPGKERELVATISWSGGSTNYADSVKGRFTISRDNAKNTVYLQMKSLIPEDTAVYYCAADSRIYIAYAVRSYERDYWGQGTQVSVSS | low polyreactivity
25 | QVQLVESGGGLVQAGGILRLSCAASGRIIQRYAMGWYRQAPGKERELVAAISSSGVSTYYADSVKGRFTISRDNAKNTVYLQMNSLKPEDTAVYYCNAVSSRVYRDYGYDYWGQGTQVTVSS | low polyreactivity
26 | QVQLVESGGGLVQAGGILRLSCAASGRTFLVNAMGWYRQAPGKERELVAAISQRGGSTDYADSVKGRFTISRDNAKNTVYLQMNSLKPEDTAVYYCAVRWGYLYDYWGQGTQVTVSS | low polyreactivity
27 | QVQLVESGGGLVQAGGILRLSCAASGRTFNGNAMGWYRQAPGKERELVAAISGGSTSYADSVKGRFTISRDNAKNTVYLQMNSLKPEDTAVYYCATDPSEEYDYWGQGNQVTVSS | low polyreactivity
28 | QVQLVESGGGLVQAGGILRLSCAASGRTFNQNAMGWYRQAPGKERELVAAITSRGGSTFYAASVKGRFTISRDNAKNTVYLQMNSLKPEDTAVDYCAAPRKQLEVGPGYYWGQGTQVTVSS | high polyreactivity
29 | QVQLVESGGGLVQAGGILRLSCAASGRTFSRYAMGWYRQAPGKERELVAAITWDGGSTYYADSVKGRFTISRDNAKNSVYLLMNSLKPEDTAVYYFAARYIRNRMNYWGQGTQVTVSS | high polyreactivity
30 | QVQLVESGGGLVQAGGILRLSCAASGRTLYHYVMGWYRQAPGKERELVAAISSGGSTYYADSVKGRFTISRDNAKNTVYLQMNSLKPEDTEVYYCAAGRRGDWGQGTQVTVSS | high polyreactivity
31 | QVQLVESGGGLVQAGGILRLSCAASGSIFDFYAMGWYRQAPGKERELVAAISGSGGSTYYADSVKGRFTISRDNAKNTVYLQMNSLKPEDTAVYYCSYYYWGQGTQVTVSS | low polyreactivity
32 | QVQLVESGGGLVQAGGILRLSCAASGSIFGGYGMGWYRQAPGKERELVAAITSVSSTYYADSVKGRFTISRDNAMNTVYVQMNSLKPEDTAVYYCAARPYPHSAYEGDYWGRGTQVTVSS | low polyreactivity
